Assay results as given in patent US20200339702A1 (ULTRAHUMAN THIRTEEN, published 2020).
Changes are numbered by the printed parent chain. Names may count otherwise.

B1: 15G11 IgG1null (antibody, V domains shown)
VH: QVQLVESGGGLVKPGGSLRLSCAASGFTFSDYGMSWIRQAPGKGLEWVSTISDSGSYTYYPDSVKGRFTISRDNAKNSLYLQMNSLRAEDTAVYYCARELGDYDGFDYWGQGTLVTVSS
VL: DIQMTQSPSSLSASVGDRVTITCRASQEISSYLSWYQQKPGKAPKLLIYAASSLDSGVPSRFSGSGSGTDFTLTISSLQPEDFATYYCLQYDSTPYTFGGGTKVEIK
notes: Human IgG1null (L234A, L235A, G237A) and human Ckappa
B2: MH2 IgG1null (antibody, V domains shown)
VH: B1 VH with T58I, P61A, L100W, Y108F
VL: B1 VL with E28S, D55Q, Y96L
notes: Designer (Maximally Humanized) clone; Human IgG1null and human Ckappa
B3: 11H02 IgG1null (antibody, V domains shown)
VH: B1 VH with P61A, L100W, Y108N
VL: B1 VL with E28I, D92Y, Y96L
notes: Human IgG1null and human Ckappa
B4: MH1 IgG1null (antibody, V domains shown)
VH: B1 VH with T58I, P61A
VL: B1 VL with E28S, D55Q, Y96L
notes: as for B2
B5: MH4 IgG1null (antibody, V domains shown)
VH: B1 VH with T58I, P61A, L100W, Y108E
VL: B1 VL with E28S, D55Q, Y96L
notes: as for B2
B6: MH5 IgG1null (antibody, V domains shown)
VH: B1 VH with Y57T, T58I, P61A, L100Y
VL: B1 VL with E28S, D55Q, Y96L
notes: as for B2
B7: 16B09 IgG1null (antibody, V domains shown)
VH: B1 VH with G33S, S56T, L100W, Y108F
VL: B1 VL with S53T, D55Q, Y96L
notes: as for B1
B8: 15D03 IgG1null (antibody, V domains shown)
VH: B1 VH with T58I, P61A, L100W, Y108H
VL: B1 VL with D55Q, Y96L
notes: as for B3
B9: 17H10 IgG1null (antibody, V domains shown)
VH: B1 VH with S54G, P61A, L100W, Y108E
VL: B1 VL with E28S, S31G, S53T, D55Q
notes: as for B3
B10: 15D10 IgG1null (antibody, V domains shown)
VH: B1 VH with S54G, P61A, S63N, L100W, Y108F
VL: B1 VL with E28S, S53T, D55Q, Y96L
notes: as for B1
B11: 09H02 IgG1null (antibody, V domains shown)
VH: B1 VH with G33S, S54G
VL: B1 VL with E28S, D55Q, Y96L
notes: Human IgG1null and human Ckappa; also called 09HO2
B12: 15E02 IgG1null (antibody, V domains shown)
VH: B1 VH with S56T, Y57T, T58I, P61A, S63N, L100Y
VL: B1 VL with E28S, D55Q, Y96L
notes: as for B3

What was measured:
[1] = biological target: T1, rhesus ERBB3 on transiently transfected HEK-293 cells (rhesus monkey (Macaca mulatta), UniProt P21860 20-1342 (human entry)); assay: flow cytometry, rhesus ERBB3-transfected HEK-293
T1 construct: also called rhesus ERBB3+ HEK-293 cells
T1 chain: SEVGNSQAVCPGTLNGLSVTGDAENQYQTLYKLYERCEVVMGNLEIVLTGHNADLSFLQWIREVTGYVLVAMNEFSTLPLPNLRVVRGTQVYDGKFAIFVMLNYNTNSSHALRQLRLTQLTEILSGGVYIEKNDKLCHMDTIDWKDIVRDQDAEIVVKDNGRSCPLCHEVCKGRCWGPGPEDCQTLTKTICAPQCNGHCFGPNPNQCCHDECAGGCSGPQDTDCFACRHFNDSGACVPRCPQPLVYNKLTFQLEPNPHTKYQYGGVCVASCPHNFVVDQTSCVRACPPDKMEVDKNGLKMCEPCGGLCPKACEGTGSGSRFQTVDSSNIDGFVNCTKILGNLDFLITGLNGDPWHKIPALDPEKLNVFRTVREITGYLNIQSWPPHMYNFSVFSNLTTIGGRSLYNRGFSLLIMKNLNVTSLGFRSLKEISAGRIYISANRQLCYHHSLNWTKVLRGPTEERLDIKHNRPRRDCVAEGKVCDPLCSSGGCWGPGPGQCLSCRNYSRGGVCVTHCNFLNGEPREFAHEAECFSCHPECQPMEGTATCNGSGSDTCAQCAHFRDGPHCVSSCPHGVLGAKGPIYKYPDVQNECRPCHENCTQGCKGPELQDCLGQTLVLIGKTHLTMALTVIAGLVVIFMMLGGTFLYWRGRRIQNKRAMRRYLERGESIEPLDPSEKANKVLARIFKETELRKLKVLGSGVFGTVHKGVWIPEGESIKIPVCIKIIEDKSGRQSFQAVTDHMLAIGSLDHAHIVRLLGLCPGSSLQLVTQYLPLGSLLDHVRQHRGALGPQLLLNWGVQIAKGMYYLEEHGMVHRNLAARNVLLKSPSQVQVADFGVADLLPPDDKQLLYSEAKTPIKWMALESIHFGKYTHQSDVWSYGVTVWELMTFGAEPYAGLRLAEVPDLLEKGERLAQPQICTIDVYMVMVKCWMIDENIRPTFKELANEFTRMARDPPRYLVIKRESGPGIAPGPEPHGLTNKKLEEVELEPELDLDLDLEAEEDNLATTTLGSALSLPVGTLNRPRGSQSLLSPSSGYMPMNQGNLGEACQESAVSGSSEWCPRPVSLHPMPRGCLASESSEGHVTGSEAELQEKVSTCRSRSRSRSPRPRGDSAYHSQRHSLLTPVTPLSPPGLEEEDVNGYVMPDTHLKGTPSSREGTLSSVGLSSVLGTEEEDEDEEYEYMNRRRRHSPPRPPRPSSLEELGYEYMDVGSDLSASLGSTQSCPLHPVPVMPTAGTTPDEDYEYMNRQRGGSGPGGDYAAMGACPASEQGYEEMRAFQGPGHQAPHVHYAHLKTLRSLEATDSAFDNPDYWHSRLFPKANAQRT
Experimental: (§1) Purified IgGs were tested in FACs for binding to human and rhesus monkey ERBB3 expressed on transiently transfected HEK-293 cells and HEK-293 wild-type cells. The IgG samples were titrated in three-fold serial dilutions starting at 500 nM to 0.008 nM. Binding of IgGs was detected with a mouse anti-human IgG conjugated to FITC. Results were analyzed by examining the Mean Fluorescence Intensity (MFI) of 10000 cells per sample in the BL-1 channel detector of a flow cytometer (Attune™ NxT Acoustic Focusing Cytometer, Invitrogen/ThermoFisher Scientific).
(§2) Antibodies to ERBB3 were analysed for concentration-dependent binding at the cell surface via flow cytometry. HEK-293 cells were transiently transfected with either human or rhesus ERBB3 full-length cDNAs. Anti-ERBB3 IgGs and an isotype control were then all tested in IgG1null format, over a concentration range of 500-0.008 nM for binding to human (FIG. 5A) and rhesus (FIG. 5B) transfected cells.

[2] = biological target: T2, human ERBB3 His tagged, monomeric (human, UniProt P21860 20-643, biotinylated in the Alphascreen assays (sites not given)); assay: SPR (Biacore), captured IgG, monomeric ERBB3-His analyte
T2 construct: Used unbiotinylated as Biacore analyte and biotinylated in Alphascreen; treated as one molecule; also called human ERBB3-His (Acrobiosystems); biotinylated monomeric human ERBB3
Experimental: (§3) Affinity (KD) of purified IgGs was determined via SPR with antigen in-solution on a Biacore® 3000 (GE). A mouse anti-human antibody (CH1 specific) was immobilized on a CM5 Sensor Chip to a level of 2000 RU in acetate buffer at pH 4.5 using amine coupling following the Wizard instructions for two channels. One channel was used for background signal correction. The standard running buffer HBS-EP pH 7.4 was used. Regeneration was performed with a single injection of 10 μl of 10 mM Glycine at pH 1.5 at […]. IgG samples were injected for 2 minutes at 50 nM at 30 μl/min followed by an off-rate of 60 seconds. The monomeric antigen (human ERBB3 His tagged or rhesus monkey ERBB3 His tag) was injected in two fold serial dilutions from 3 nM down to 0.2 nM, for 2 minutes at 30 μl/min followed by an off-rate of 300 seconds. The obtained sensorgrams were analysed using the Biacore® 3000 evaluation (BlAevaluation) software. The KD was calculated by simultaneous fitting of the association and dissociation phases to a 1:1 Langmuir binding model.
(§4) Biacore® analyses of binding affinity were performed for all IgGs to solution-phase, monomeric human and rhesus ERBB3 proteins.

[3] = biological target: T3, rhesus monkey ERBB3 His tag, monomeric (rhesus monkey (Macaca mulatta), UniProt P21860 20-643 (human entry), limits assumed); assay: as above
T3 chain: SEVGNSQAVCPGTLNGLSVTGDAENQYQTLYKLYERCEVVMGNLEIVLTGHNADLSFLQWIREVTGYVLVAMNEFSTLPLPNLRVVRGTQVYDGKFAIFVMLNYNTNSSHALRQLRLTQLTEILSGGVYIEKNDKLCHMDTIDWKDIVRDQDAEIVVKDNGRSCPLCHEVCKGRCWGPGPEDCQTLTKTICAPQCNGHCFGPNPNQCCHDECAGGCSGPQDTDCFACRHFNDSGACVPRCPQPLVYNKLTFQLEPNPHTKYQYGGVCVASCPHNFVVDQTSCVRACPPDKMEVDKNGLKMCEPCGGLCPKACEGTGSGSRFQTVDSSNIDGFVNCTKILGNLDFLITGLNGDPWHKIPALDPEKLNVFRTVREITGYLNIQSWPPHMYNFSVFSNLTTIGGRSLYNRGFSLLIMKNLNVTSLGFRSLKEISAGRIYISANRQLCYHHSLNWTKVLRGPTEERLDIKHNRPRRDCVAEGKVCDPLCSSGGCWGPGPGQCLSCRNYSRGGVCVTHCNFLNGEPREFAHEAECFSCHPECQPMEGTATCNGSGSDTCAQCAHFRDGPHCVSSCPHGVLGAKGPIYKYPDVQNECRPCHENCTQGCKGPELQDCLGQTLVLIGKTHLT
Experimental: as §3, §4

[4] = biological target: T4, human ERBB3 on transiently transfected HEK-293 cells (human, UniProt P21860 20-1342); assay: flow cytometry, human ERBB3-transfected HEK-293
T4 construct: also called human ERBB3+ HEK-293 cells
Experimental: as §1, §2

Binder	maximum MFI, fold over isotype control background [1] [fold]	Kd [2] [nM]	koff [2] [s⁻¹]	kon [2] [M⁻¹ s⁻¹]	Kd [3] [nM]	koff [3] [s⁻¹]	kon [3] [M⁻¹ s⁻¹]	maximum MFI, fold over isotype control background [4] [fold]
B1	> 20	0.078	0.0012	1.6e+07	0.33	0.0011	3.3e+06	> 20
B2	> 20	0.27	0.0029	1.1e+07	0.23	0.0048	2e+07	> 20
B3	> 20	1.3	0.0081	6.1e+06	2.1	0.037	1.7e+07	> 20
B4	> 20	0.51	0.0035	6.8e+06	0.45	0.0056	1.3e+07	> 20
B5	> 20	0.26	0.0029	1.1e+07	0.21	0.0047	2.2e+07	> 20
B6	> 20	0.71	0.0041	5.8e+06	0.51	0.006	1.2e+07	> 20
B7	> 20	0.089	0.0014	1.6e+07	0.21	0.0027	1.3e+07	> 20
B8	> 20	0.26	0.003	1.1e+07	0.26	0.0047	1.8e+07	> 20
B9	> 20	0.19	0.0017	9.3e+06	0.65	0.0018	2.7e+06	> 20
B10	> 20	0.14	0.0019	1.4e+07	0.54	0.0018	3.3e+06	> 20
B11	> 20	0.43	0.0013	3.1e+06	0.25	0.0027	1.1e+07	> 20
B12	> 20	0.61	0.0039	6.3e+06	2.5	0.0095	3.7e+06	> 20
